17 molecules from patent publication US20240018252A1 (Pfizer, published 2024) can be followed below.

Assay [1] deals with T1, human BCMA (human, UniProt Q02223 1-54).
T1 construct: also called huBCMA; hBCMA
T1 sequence: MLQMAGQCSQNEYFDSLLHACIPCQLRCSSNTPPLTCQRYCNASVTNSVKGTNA
In words: SPR, immobilised IgG, 25° C.

Assay [2] addresses T2, cyBCMA (cynomolgus, UniProt A0A2K5UD97 1-53).
T2 construct: Soluble analyte in SPR; construct not described; also called cyno BCMA
In words: SPR, immobilised IgG, 25° C.

The target of assay [3] is T1, human BCMA. In words: SPR, immobilised IgG, 37° C. A general note: SPR reads the build-up and loss of mass on a sensor chip optically.
Assay [4] has as its target T2, cyBCMA. In words: SPR, immobilised IgG, 37° C.
In assay [5] the target is T3, human CD3 (huCD3ed) (human, UniProt P07766 23-126; P04234 22-105).
T3 construct: Soluble analyte in SPR; The delta chain is inferred from the label 'ed'; also called hCD3ed; hCD3
In words: SPR (ProteOn XPR36), IgG amine-coupled on chip, huCD3ed as analyte, 37 C. As for the experimental part:
(§1) All experiments were performed on a Bio-Rad Proteon XPR36 surface Plasmon resonance biosensor (Bio-Rad, Hercules, CA). […] The analysis temperature for the immobilization was 25° C. and the running buffer was HBS-T+(10 mM HEPES, 150 mM NaCl, 0.05% Tween-20, pH 7.4). Channels were activated in the analyte (horizontal) direction by injecting a mixture of 1 mM ECD and 0.25 mM NHS for 3 minutes at a flow rate of 30 μL/min. IgGs were immobilized on the activated spots by injecting them in the ligand (vertical) direction at […] in 10 mM Acetate pH 4.5 buffer for 1.5 minutes at […]. The activated surfaces were blocked by injecting 1M ethanolamine, pH 8.5 in the analyte direction for 3 minutes at 30 μL/min.
(§2) The analysis temperature for the hCD3 binding analysis was 37° C. or 25° C. in a running buffer of HBS-T+, supplemented with 1 mg/mL BSA. A kinetic titration method was employed for the interaction analysis as described in Abdiche, et al. The hCD3 (human CD3) analyte was injected in the analyte direction using a series of injections from low to high concentration. The concentrations used were 0.08 nM, 0.4 nM, 2 nM, 10 nM and 50 nM (a 5-membered series, with a 5-fold dilution factor and top concentration of 50 nM). The association time for a given analyte dilution was two minutes. Immediately after the 50 nM hCD3 injection, dissociation was monitored for 2 hours.
(§3) The sensorgrams were double-referenced and fit to a 1:1 Langmuir with mass transport kinetic titration model in BIAevaluation Software version 4.1.1 (GE Lifesciences, Piscataway, NJ).

The target of assay [6] is T3, human CD3 (huCD3ed). In words: SPR (ProteOn XPR36), IgG on chip, huCD3ed analyte, 37 C; column head says nM but kd/ka gives this number in M. As for the experimental part: as §1, §2, §3
Assay [7] has as its target T4, cynomolgus CD3 (cyCD3ed) (cynomolgus, UniProt Q95LI5 22-117; Q95LI8 22-105).
T4 construct: Named only by the column head 'cyCD3ed'
In words: SPR (ProteOn XPR36), IgG amine-coupled on chip, cyCD3ed as analyte, 25 C.

Assay [8] deals with T3, human CD3 (huCD3ed). In words: SPR (ProteOn XPR36), IgG amine-coupled on chip, huCD3ed as analyte, 25 C. As to the method:
as §1, §2, §3

For assay [9], the target named is T3, human CD3 (huCD3ed). In words: Biacore SPR, antibody as ligand, hCD3ed 80 nM-0.64 nM, kinetic fit.

Substitutions are numbered along the chain they refer to.

T4 sequence (Q95LI5 22-117, chain 1 of 2): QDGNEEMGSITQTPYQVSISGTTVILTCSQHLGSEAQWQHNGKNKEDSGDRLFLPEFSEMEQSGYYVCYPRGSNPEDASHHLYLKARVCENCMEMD
T4 sequence (Q95LI8 22-105, chain 2 of 2): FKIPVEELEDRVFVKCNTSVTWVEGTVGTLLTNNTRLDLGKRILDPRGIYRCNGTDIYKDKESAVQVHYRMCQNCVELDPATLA
T3 sequence (P07766 23-126, chain 1 of 2): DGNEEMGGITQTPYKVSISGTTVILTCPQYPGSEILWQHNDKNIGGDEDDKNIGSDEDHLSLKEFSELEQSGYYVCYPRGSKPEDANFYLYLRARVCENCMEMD
T3 sequence (P04234 22-105, chain 2 of 2): as the sequence (Q95LI8 22-105, chain 2 of 2) above, with V5I, K15N, V20I, T32S, N33D, N34I, A64T, N74S, L83V counted along it
T2 sequence (A0A2K5UD97 entry or part of it): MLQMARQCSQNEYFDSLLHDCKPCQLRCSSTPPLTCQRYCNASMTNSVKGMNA

B1: L3.PY/P6E01 (antibody, V domains shown)
VH: EVQLLESGGGLVQPGGSLRLSCAASGFTFGSYAMTWVRQAPGKGLEWVSAISGSGGNTFYADSVKGRFTISRDNSKNTLYLQMNSLRAEDTAVYYCARVSPIASGMDYWGQGTLVTVSS
VL: EIVLTQSPGTLSLSPGERATLSCRASQSVSSSYLAWYQQKPGQAPRLLIYGASSRATGIPDRFSGSGSGTDFTLTISRLEPEDFAVYYCQHYPYPPSFTFGQGTKVEIK
notes: IgG in the assay
For B1, the “T½” value in assay [1] came to 50.7 min; in assay [2] it was 3.9 min; in assay [3], 5.91 min; in assay [4], 0.88 min.

B2: L1.LGF/L3.PY/H3.AQ (antibody, V domains shown)
VH: B1 VH with S104A, G105Q
VL: B1 VL with V29L, S30G, S32F
notes: IgG in the assay
Turning to B2, the “T½” value in assay [1] was determined as 13 min; in [2] it was 2.4 min.

B3: L1.LGF/L3.NY/H3.AP (antibody, V domains shown)
VH: B1 VH with S104A, G105P
VL: B1 VL with V29L, S30G, S32F, P93N
notes: IgG in the assay
For B3, the “T½” value in assay [1] turned out to be 21.7 min; in assay [2], 2.1 min.

B4: L3.NY/P6E01 (antibody, V domains shown)
VH: B1 VH
VL: B1 VL with P93N
notes: IgG in the assay
For B4, the “T½” value in [1] is 30.1 min; in [2], 4 min.

B5: L1.LGF/L3.PY/H3.AP (antibody, V domains shown)
VH: B1 VH with S104A, G105P
VL: B1 VL with V29L, S30G, S32F
notes: IgG in the assay
With B5, the “T½” value was 11.9 min in assay [1] and 0.9 min in assay [2].

B6: L1.LGF/L3.NY/P6E01 (antibody, V domains shown)
VH: B1 VH
VL: B1 VL with V29L, S30G, S32F, P93N
notes: IgG in the assay
Take B6: the “T½” value in [1] is 2.63 min; in [2], 1.1 min.

B7: L1.LGF/L3.NY/H3.AQ (antibody, V domains shown)
VH: B1 VH with S104A, G105Q
VL: B1 VL with V29L, S30G, S32F, P93N
notes: IgG in the assay
In the case of B7, the “T½” value in assay [1] was determined as 38.6 min; in assay [2], 7.8 min.

B8: L3.KW/P6E01 (antibody, V domains shown)
VH: B1 VH
VL: B1 VL with Q90K, P93G, Y94W
notes: IgG in the assay
Consider B8, for which the “T½” value in [1] was determined as 36.7 min; in [2], 4.5 min.

B9: h2B4-VH-wt VL_TK (antibody, V domains shown)
VH: EVQLVESGGGLVQPGGSLRLSCAASGFTFSDYYMTWVRQAPGKGLEWVAFIRNRARGYTSDHNASVKGRFTISRDNAKNSLYLQMNSLRAEDTAVYYCARDRPSYYVLDYWGQGTTVTVSS
VL: DIVMTQSPDSLAVSLGERATINCKSSQSLFNVRSRKNYLAWYQQKPGQPPKLLISWASTRESGVPDRFSGSGSGTDFTLTISSLQAEDVAVYYCKQSYDLFTFGSGTKLEIK
notes: Anti-CD3; also called h2B4-TK
The term koff denotes the first-order rate constant of dissociation. A higher koff goes with a short-lived complex. By kon is commonly meant the rate constant with which the complex forms. Read a low kon as slow association. The term Kd denotes a measure of binding affinity in units of concentration. On to B9, for which, in assay [5], the “T½” value turned out to be 0.83 min, the koff came to 0.014 s⁻¹ and the kon amounted to 380000 M⁻¹ s⁻¹. Further, in assay [6], the dissociation constant (Kd) came out at 38 nM.

B10: h2B4 (antibody, V domains shown)
VH: B9 VH
VL: B9 VL with K24T
notes: Anti-CD3; tested as human IgG immobilised on the chip; also called h2B4-1d
Turning to B10, the Kd in [7] is 3.8 nM; in assay [8], 5.3 nM; in assay [6], 31.4 nM. In addition, the figures for the “T½” value in [7], in [8] and in assay [5] were 7.7 min, 5.8 min and 0.84 min, respectively. Also, the koff in assay [7] stood at 0.0015 s⁻¹; in assay [8] it was 0.002 s⁻¹; in assay [5] it was 0.0137 s⁻¹. Besides, the association rate constant (kon) in assay [7] worked out at 390000 M⁻¹ s⁻¹; in assay [8], 370000 M⁻¹ s⁻¹; in assay [5], 437000 M⁻¹ s⁻¹.

B11: h2B4-VH-yaes VL_TK (antibody, V domains shown)
VH: B9 VH with H62Y, N63A, A64E
VL: B9 VL
notes: Anti-CD3; also called h2B4-yaesTK
Turning to B11, in assay [5], the “T½” value was found to be 0.5 min, the dissociation rate constant (koff) came out at 0.023 s⁻¹ and the kon was found to be 230000 M⁻¹ s⁻¹. The molecule further had a Kd in [6] of 100 nM.

B12: h2B4-VH-yaps VL_TK (antibody, V domains shown)
VH: B9 VH with H62Y, N63A, A64P
VL: B9 VL
notes: Anti-CD3
Turning to B12, in assay [5], the “T½” value is 0.5 min, the koff worked out at 0.023 s⁻¹ and the on-rate constant (kon) came out at 250000 M⁻¹ s⁻¹. In assay [6], this molecule yielded a Kd of 92 nM.

B13: h2B4-VH-yads VL_TK (antibody, V domains shown)
VH: B9 VH with H62Y, N63A, A64D
VL: B9 VL
notes: Anti-CD3
For B13, in assay [5], the “T½” value worked out at 0.79 min, the koff turned out to be 0.021 s⁻¹ and the association rate constant (kon) is 240000 M⁻¹ s⁻¹. The same molecule showed a Kd in assay [6] of 86 nM.

B14: h2B4-VH-hnps VL_TK (antibody, V domains shown)
VH: B9 VH with A64P
VL: B9 VL
notes: Anti-CD3; also called h2B4-hnpsTK
For the molecule B14, in assay [5], the “T½” value was 0.72 min, the koff worked out at 0.016 s⁻¹ and the kon stood at 390000 M⁻¹ s⁻¹. In assay [6], this molecule registered a dissociation constant (Kd) of 41 nM.

B15: 1C10 (antibody, mouse IgG1, V domains shown)
VH: QVQLQQPGSELVRPGASVILSCKASGYTFTSYWMHWVRQRPGQGLEWIGNIYSGGDTINYDEKFKNKAILTVDTSSSTAYMHLSSLTSEDSAVYYCTRDATSRYFFDYWGQGTTVTVSS
VL: DIVMSQSPSSLAVSAGEKVTMSCKSSQSLLNSRTRKNYLAWYQQKPGQSPKLLIYWASTRESGVPDRFTGSGSGTDFTLTIDSVQPEDLAVYYCTQSFILRTFGGGTKLEIK
notes: Cloned from immunized mouse, expressed as mouse IgG1; also called anti-CD3 1C10
Regarding B15, in [9], the affinity, expressed as Kd, was 8 nM and the “t1/2” value is 4.88 min.

B16: UCHT1 (antibody, V domains shown)
VH: EVQLQQSGPELVKPGPSMKISCKASGYSFTGYTMNWVKQSHGKNLEWMGLINPYKGVSTYNQKFKDKATLTVDKSSSTAYMELLSLTSEDSAVYYCARSGYYGDSDWYFDVWGQGTTLTVFS
VL: DIQMTQTTSSLSASLGDRVTISCRASQDIRNYLNWYQQKPDGTVKLLIYYTSRLHSGVPSKFSGSGSGTDYSLTISNLEQEDIATYFCQQGNTLPWTFAGGTKLEIKR
Turning to B16, in assay [9], the dissociation constant (Kd) is under 4.74 nM and the “t1/2” value is over 13.5 min.

B17: 2B4 (antibody, mouse IgG1, V domains shown)
VH: EVKLVESGGGLVQPGGSLRLSCATFGFTFTDYYMTWVRQPPGKALEWVAFIRNRARGYTSDHNASVKGRFTISRDNSQNILYLQMNTLRAEDSATYYCARDRPSYYVLDYWGQGTTVTVSS
VL: DIVMSQSPPSLAVSVGDKVTMSCTSSQSLFNSRSRKNYLAWYQQKSGQSPKLLISWASTRESGVPDRFTGSGSGTDFTLTISSVQAEDLAVYYCKQSYDLFTFGSGTKLEIK
notes: Cloned from immunized mouse, expressed as mouse IgG1; also called anti-CD3 2B4
As to B17, in assay [9], the Kd was 7.33 nM and the “t1/2” value came out at 4.21 min.
